According to patent US20260108588A1, “A COMPLEX COMPRISING A ALPHA-LACTALBUMIN AND A FATTY ACID OR LIPID FOR USE IN THE TREATMENT OR PREVENTION OF CANCER” (LINNANE PHARMA AB, priority 2022, published 2026):

B1: HAMLET: tumoricidal unfolded protein-lipid complex of partially unfolded human α-lactalbumin and oleic acid (protein, UniProt P00709 20-142, looked up)
Alpha-lactalbumin: KQFTKCELSQLLKDIDGYGGIALPELICTMFHTSGYDTQAIVENNESTEYGLFQISNKLWCKSSQVPQSRNICDISCDKFLDDDITDDIMCAKKILDIKGIDYWLAHKALCTEKLEQWLCEKL
modifications: complexed with oleic acid

How the values were obtained:
[1] = system: bladder cancer; conditions: patients; cited from earlier work
[2] = system: DLD1 cells; experiment: Cell death assays (Prestoblue and ATPlite); format: cell-based, human; conditions: 7, 21 and 35 μM each, FIG. 12g-i
Experimental: Two assays were used as an indirect measure of cell death. Luminescence-based ATPlite™ kit (Perkin Elmer) as well as the Prestoblue assay (ThermoFisher Scientific). Cells (5×10^4 cells/well) were seeded in serum-free RPMI-1640 on 96-well plates and treated with BAMLET and alpha1-oleate at different concentration (7, 21, and 35 μM) and incubated for one hour. Afterward, FCS was added at concentration of 5% and the cells were continuously incubated for two hours at 37° C., at the end of which the two kits were used according to manufactures' instructions. Luminescence and fluorescence were measured using a microplate reader (Infinite F200, Tecan). The experiments were performed in triplicate and repeated twice.

[3] = system: tumor cells; conditions: cited from earlier work
[4] = system: bladder cancer; conditions: local instillations; cited from earlier work
[5] = system: skin papillomas; conditions: topical application; cited from earlier work

Row | Molecule | therapeutic efficacy in bladder cancer [1] | tumoricidal effect, BAMLET compared with alpha1-oleate [2] | tumor cell killing in vitro [3] | tumor size in bladder cancer [4] | effect on skin papillomas [5]
1 | alpha1-oleate: HAMLET family member formed by the N-terminal alpha-helical peptide (aa 1-39) of alpha-lactalbumin and oleate [reference compound] | has shown therapeutic efficacy | similar | – | – | –
2 | B1 | – | – | kills many types of tumor cells | caused a reduction in tumor size | removed or reduced skin papillomas
